Assay results from IntAct's records for PubMed 18303947.

B1: NMDA receptor synaptonuclear signaling and neuronal migration factor (Mus musculus), Q99NF2-1 (parent)
chain: MGAAASRRRALRSEAMSSVAAKVRAARAFGEYLSQSHPENRNGADHLLADAYSGHDGSPEMQPAPQNKRRLSLVSNGRYEGSISDEAVSGKPAIEGPQPHVYTISREPALLPGSEAEAIELAVVKGRRQRERHPHHHSQPLRASPGSSREDISRPCQSWAGSRQGSKECPGCAQLVPGPSSRAFGLEQPPLPEAPGRHKKLERMYSVDGVSDDVPIRTWFPKENLFSFQTATTTMQAISVFRGYAERKRRKRENDSASVIQRNFRKHLRMVGSRRVKAQTFAERRERSFSRSWSDPTPMKADTSHDSRDSSDLQSSHCTLDEACEDLDWDTEKGLEAMACNTEGFLPPKVMLISSKVPKAEYIPTIIRRDDPSIIPILYDHEHATFEDILEEIEKKLNIYHKGAKIWKMLIFCQGGPGHLYLLKNKVATFAKVEKEEDMIHFWKRLSRLMSKVNPEPNVIHIMGCYILGNPNGEKLFQNLRTLMTPYKVTFESPLELSAQGKQMIETYFDFRLYRLWKSRQHSKLLDFDDVL

Variants of: B1
Settings: with Cabp1, O88751-1
Sequence of Cabp1, O88751-1 (O88751 whole entry): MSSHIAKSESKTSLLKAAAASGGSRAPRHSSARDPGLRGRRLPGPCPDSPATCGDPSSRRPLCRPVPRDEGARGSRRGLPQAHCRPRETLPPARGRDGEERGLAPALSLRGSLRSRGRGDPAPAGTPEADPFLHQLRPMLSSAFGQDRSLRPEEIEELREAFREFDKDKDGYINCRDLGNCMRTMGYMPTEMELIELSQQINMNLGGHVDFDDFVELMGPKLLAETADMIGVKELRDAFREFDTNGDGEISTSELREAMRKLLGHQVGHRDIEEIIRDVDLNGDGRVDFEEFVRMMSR

Variant	effect of a mutation on the interaction
MGAAASRRRALRSEAMSSVAAKVRAARAFGEYLSQSHPENRNGADHLLADAYSGHDGSPEMQPAPQNKRRLSLVSNGRYEGSISDEAVSGKPAIEGPQPHVYTISREPALLPGSEAEAIELAVVKGRRQRERHPHHHSQPLRASPGSSREDISRPCQSWAGSRQGSKECPGCAQLVPGPSSRAFGLEQPPLPEAPGRHKKLERMYSVDGVSDDVPIRTWFPKENLFSFQTATTTMQAISVERGYAERKRRKRENDSASVIQRNFRKHLRMVGSRRVKAQTFAERRERSFSRSWSDPTPMKADTSHDSRDSSDLQSSHCTLDEACEDLDWDTEKGLEAMACNTEGFLPPKVMLISSKVPKAEYIPTIIRRDDPSIIPILYDHEHATFEDILEEIEKKLNIYHKGAKIWKMLIFCQGGPGHLYLLKNKVATFAKVEKEEDMIHFWKRLSRLMSKVNPEPNVIHIMGCYILGNPNGEKLFQNLRTLMTPYKVTFESPLELSAQGKQMIETYFDFRLYRLWKSRQHSKLLDFDDVL [F241E]	disrupting interaction
